Tested on: eVP35 IID WT (Ebola virus (EBOV))
Assay: filter binding

Which binding signal (fraction bound) does the source give for dsRNA here?
Its binding signal (fraction bound) is less than 0.3.
